Results reported in the supplement of paper PMC10567573.

B1: NET1 (parent)
chain: PTPAKRRSSALWSEMLDITMKESL
B2: MYBL2 (parent)
chain: IAKHLKGRLGKQCRERWHNHLNPE

Variants of: B1
Assay: protein stability index of a GFP-peptide fusion (GPS, HEK-293T) (PSI 1-6); higher = more stable
Conditions: c terminus: a fixed tail appended
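Note: lentivirally expressed fusions sorted by FACS into six bins by GFP to DsRed ratio, PSI derived from sequencing read proportions per bin multiplied by bin number.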

| Variant | protein stability index |
| --- | --- |
| PTPAKRRSSALWSEMLDITMKEEL [S23E] | 2.14 |
| PTPAKRRSSALWSEMLDITMKECL [S23C] | 1.4 |
| PTPAKRRSSALWSEMLDITMKEFL [S23F] | 1.69 |
| PTPAKRRSSALWSEMLDITMKEGL [S23G] | 2.33 |
| PTPAKRRSSALWSEMLDITMKEML [S23M] | 1.33 |
| PTPAKRRSSALWSEMLDITMKEDL [S23D] | 1.93 |
| PTPAKRRSSALWSEMLDITMKEYL [S23Y] | 1.9 |
| PTPAKRRSSALWSEMLDITMKEKL [S23K] | 2.79 |
| PTPAKRRSSALWSEMLDITMKENL [S23N] | 2.48 |
| PTPAKRRSSALWSEMLDITMKEPL [S23P] | 2.63 |
| PTPAKRRSSALWSEMLDITMKEIL [S23I] | 1.89 |
| PTPAKRRSSALWSEMLDITMKELL [S23L] | 2.66 |

Variants of: B2
Assay: as above
Conditions: c terminus: a fixed tail appended

| Variant | protein stability index |
| --- | --- |
| IAFHLKGRLGKQCRERWHNHLNPE [K3F] | 2.46 |
| IADHLKGRLGKQCRERWHNHLNPE [K3D] | 2.3 |
| IASHLKGRLGKQCRERWHNHLNPE [K3S] | 1.44 |
| IAQHLKGRLGKQCRERWHNHLNPE [K3Q] | 2.96 |
| IAGHLKGRLGKQCRERWHNHLNPE [K3G] | 1.79 |
| IACHLKGRLGKQCRERWHNHLNPE [K3C] | 2.25 |
| IAAHLKGRLGKQCRERWHNHLNPE [K3A] | 2.84 |
| IANHLKGRLGKQCRERWHNHLNPE [K3N] | 1.8 |
| IAWHLKGRLGKQCRERWHNHLNPE [K3W] | 1.95 |
| IAVHLKGRLGKQCRERWHNHLNPE [K3V] | 2.9 |
| IAEHLKGRLGKQCRERWHNHLNPE [K3E] | 2 |
| IAIHLKGRLGKQCRERWHNHLNPE [K3I] | 1.51 |
| IAYHLKGRLGKQCRERWHNHLNPE [K3Y] | 2.17 |
| IAPHLKGRLGKQCRERWHNHLNPE [K3P] | 1.93 |
| IARHLKGRLGKQCRERWHNHLNPE [K3R] | 2.03 |
| IAHHLKGRLGKQCRERWHNHLNPE [K3H] | 2.32 |
| IAMHLKGRLGKQCRERWHNHLNPE [K3M] | 1.81 |
| IALHLKGRLGKQCRERWHNHLNPE [K3L] | 2.34 |
| IATHLKGRLGKQCRERWHNHLNPE [K3T] | 1.81 |
| IAKALKGRLGKQCRERWHNHLNPE [H4A] | 2.33 |
| IAKVLKGRLGKQCRERWHNHLNPE [H4V] | 3.2 |

| Variant | protein stability index |
| --- | --- |
| IAKMLKGRLGKQCRERWHNHLNPE [H4M] | 1.83 |
| IAKLLKGRLGKQCRERWHNHLNPE [H4L] | 2.33 |
| IAKQLKGRLGKQCRERWHNHLNPE [H4Q] | 2.27 |
| IAKDLKGRLGKQCRERWHNHLNPE [H4D] | 2.74 |
| IAKGLKGRLGKQCRERWHNHLNPE [H4G] | 2.2 |
| IAKWLKGRLGKQCRERWHNHLNPE [H4W] | 1.76 |
| IAKRLKGRLGKQCRERWHNHLNPE [H4R] | 2.17 |
| IAKPLKGRLGKQCRERWHNHLNPE [H4P] | 2.15 |
| IAKELKGRLGKQCRERWHNHLNPE [H4E] | 2.04 |
| IAKFLKGRLGKQCRERWHNHLNPE [H4F] | 2.52 |
| IAKCLKGRLGKQCRERWHNHLNPE [H4C] | 3.5 |
| IAKTLKGRLGKQCRERWHNHLNPE [H4T] | 1.87 |
| IAKSLKGRLGKQCRERWHNHLNPE [H4S] | 1.73 |
| IAKKLKGRLGKQCRERWHNHLNPE [H4K] | 2.12 |
| IAKYLKGRLGKQCRERWHNHLNPE [H4Y] | 4.85 |
| IAKNLKGRLGKQCRERWHNHLNPE [H4N] | 1.57 |
| IDKHLKGRLGKQCRERWHNHLNPE [A2D] | 2.15 |
| IHKHLKGRLGKQCRERWHNHLNPE [A2H] | 2.04 |
| IQKHLKGRLGKQCRERWHNHLNPE [A2Q] | 2.03 |
| ITKHLKGRLGKQCRERWHNHLNPE [A2T] | 2.37 |
| IYKHLKGRLGKQCRERWHNHLNPE [A2Y] | 1.76 |

| Variant | protein stability index |
| --- | --- |
| IWKHLKGRLGKQCRERWHNHLNPE [A2W] | 1.64 |
| IPKHLKGRLGKQCRERWHNHLNPE [A2P] | 1.75 |
| ICKHLKGRLGKQCRERWHNHLNPE [A2C] | 1.8 |
| INKHLKGRLGKQCRERWHNHLNPE [A2N] | 2.2 |
| IGKHLKGRLGKQCRERWHNHLNPE [A2G] | 1.95 |
| IRKHLKGRLGKQCRERWHNHLNPE [A2R] | 2.53 |
| ISKHLKGRLGKQCRERWHNHLNPE [A2S] | 2.1 |
| IMKHLKGRLGKQCRERWHNHLNPE [A2M] | 1.6 |
| IKKHLKGRLGKQCRERWHNHLNPE [A2K] | 2.12 |
| IIKHLKGRLGKQCRERWHNHLNPE [A2I] | 1.59 |
| ILKHLKGRLGKQCRERWHNHLNPE [A2L] | 3.74 |
| IVKHLKGRLGKQCRERWHNHLNPE [A2V] | 1.53 |
| IEKHLKGRLGKQCRERWHNHLNPE [A2E] | 2.16 |
| IAKHFKGRLGKQCRERWHNHLNPE [L5F] | 1.67 |
| IAKHIKGRLGKQCRERWHNHLNPE [L5I] | 1.75 |
| IAKHAKGRLGKQCRERWHNHLNPE [L5A] | 2.18 |
| IAKHCKGRLGKQCRERWHNHLNPE [L5C] | 1.9 |
| IAKHHKGRLGKQCRERWHNHLNPE [L5H] | 2.51 |
| IAKHGKGRLGKQCRERWHNHLNPE [L5G] | 2.04 |
| IAKHEKGRLGKQCRERWHNHLNPE [L5E] | 2.49 |
| IAKHDKGRLGKQCRERWHNHLNPE [L5D] | 2.7 |

| Variant | protein stability index |
| --- | --- |
| TAKHLKGRLGKQCRERWHNHLNPE [I1T] | 2.64 |
| NAKHLKGRLGKQCRERWHNHLNPE [I1N] | 2.45 |
| FAKHLKGRLGKQCRERWHNHLNPE [I1F] | 2.7 |
| VAKHLKGRLGKQCRERWHNHLNPE [I1V] | 2.54 |
| AAKHLKGRLGKQCRERWHNHLNPE [I1A] | 2.37 |
| EAKHLKGRLGKQCRERWHNHLNPE [I1E] | 2.53 |
| MAKHLKGRLGKQCRERWHNHLNPE [I1M] | 2.58 |
| WAKHLKGRLGKQCRERWHNHLNPE [I1W] | 1.36 |
| CAKHLKGRLGKQCRERWHNHLNPE [I1C] | 1.49 |
| YAKHLKGRLGKQCRERWHNHLNPE [I1Y] | 1.56 |
| DAKHLKGRLGKQCRERWHNHLNPE [I1D] | 2.06 |
| GAKHLKGRLGKQCRERWHNHLNPE [I1G] | 2.4 |
| KAKHLKGRLGKQCRERWHNHLNPE [I1K] | 2.18 |
| RAKHLKGRLGKQCRERWHNHLNPE [I1R] | 2.1 |
| SAKHLKGRLGKQCRERWHNHLNPE [I1S] | 2.17 |
| PAKHLKGRLGKQCRERWHNHLNPE [I1P] | 2.6 |
| QAKHLKGRLGKQCRERWHNHLNPE [I1Q] | 2.64 |
| HAKHLKGRLGKQCRERWHNHLNPE [I1H] | 2.19 |
| LAKHLKGRLGKQCRERWHNHLNPE [I1L] | 1.67 |
